Experimental data from patent US20240059799A1 (Pfizer, published 2024).

Key:
recombinant human TL1A [1] = target: T1, recombinant human TL1A (human, UniProt O95150 71-251); assay: cell-based or functional assay
T1 chain: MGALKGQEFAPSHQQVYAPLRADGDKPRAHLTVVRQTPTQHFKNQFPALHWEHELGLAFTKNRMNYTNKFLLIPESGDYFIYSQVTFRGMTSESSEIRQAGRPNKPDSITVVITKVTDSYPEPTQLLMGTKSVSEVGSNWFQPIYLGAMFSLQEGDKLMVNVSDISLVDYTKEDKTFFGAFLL

bovine serum albumin = target: T2, bovine serum albumin (bovine, UniProt P02769 25-607); assay: direct binding ELISA on coated BSA
T2 construct: also called BSA
T2 sequence (P02769 25-607 limits assumed): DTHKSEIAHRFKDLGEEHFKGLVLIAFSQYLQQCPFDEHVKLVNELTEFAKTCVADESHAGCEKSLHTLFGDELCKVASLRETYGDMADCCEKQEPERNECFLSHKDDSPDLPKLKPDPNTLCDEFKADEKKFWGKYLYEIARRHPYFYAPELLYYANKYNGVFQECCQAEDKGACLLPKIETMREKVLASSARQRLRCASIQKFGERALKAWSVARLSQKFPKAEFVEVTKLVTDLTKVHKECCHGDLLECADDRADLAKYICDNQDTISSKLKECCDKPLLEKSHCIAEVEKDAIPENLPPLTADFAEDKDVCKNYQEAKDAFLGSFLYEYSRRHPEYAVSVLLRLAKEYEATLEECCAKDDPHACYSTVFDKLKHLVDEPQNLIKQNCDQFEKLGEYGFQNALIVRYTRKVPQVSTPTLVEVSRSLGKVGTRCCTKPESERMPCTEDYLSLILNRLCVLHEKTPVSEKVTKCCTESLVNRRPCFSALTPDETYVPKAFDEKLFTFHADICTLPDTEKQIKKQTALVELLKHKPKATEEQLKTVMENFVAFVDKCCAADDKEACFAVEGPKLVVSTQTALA
Procedure: (§1) For the direct binding ELISA method to HSA or BSA, 96-well high binding plates (Corning, product number 3590) were coated with 1 μg/mL recombinant HSA or BSA in 100 μL/well in PBS overnight at 4° C. Plates were then blocked in PBS+0.02% casein solution and washed with PBS+0.05% Tween-20 following standard ELISA protocol. […] Plates were washed with PBS+0.05% Tween-20 following standard ELISA protocol, and goat anti-human IgG-Fc HRP conjugated secondary antibody (Pierce, #31413) diluted to 1:10,000 in assay buffer was added to plates and incubated for 1 hour at room temperature. Next, the plates were washed with PBS+0.05% Tween-20 following standard ELISA protocol, and then TMB substrate (BioFX Laboratories, catalog number TMBW-0100-01) was added to plates.
(§2) Reactions were stopped after approximately 5 minutes by adding 0.18 M ortho-phosphoric acid to each well and absorbance was read at 450 nm. […] For this method, samples diluted to 0.3 mg/mL were dispensed into the sample tray of a MicroCal VP-Capillary DSC with Autosampler (Malvern Instruments, Inc.), equilibrated for 5 minutes at 10° C. and then scanned up to 110° C. at a rate of 100° C. per/hour. A filtering period of 16 seconds was selected. Raw data was baseline corrected and the protein concentration was normalized. Origin Software 7.0 (Origin Lab Corporation, Northampton, MA) was used to fit the data to an MN2-State Model with an appropriate number of transitions.

[2] = target: T3, recombinant cynomolgus monkey TL1A (cynomolgus monkey, UniProt O95150 72-251 (human entry)); assay: SPR, antibody injected over captured biotinylated TL1A, 37° C.
T3 construct: biotinylated for SPR capture; also called cyno TL1A
T3 chain: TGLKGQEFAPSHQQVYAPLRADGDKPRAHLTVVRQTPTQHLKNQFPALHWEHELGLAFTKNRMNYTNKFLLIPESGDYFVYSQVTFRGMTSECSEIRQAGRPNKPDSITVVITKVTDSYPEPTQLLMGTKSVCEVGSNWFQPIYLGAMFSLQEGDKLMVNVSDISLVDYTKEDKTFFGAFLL
Procedure: (§3) For these analyses, kinetic assays were conducted at 37° C. using a collection rate of 10 Hz on a Biacore™ T200 instrument (GE Healthcare). […] The association phase was 90 seconds, and the dissociation phases were 1600 seconds over human, cynomolgus monkey and rabbit TL1A and 180 seconds for mouse and rat TL1A.
(§4) In order to determine binding to TL1A, kinetic assays were conducted at 37° C. using a collection rate of 10 Hz on a Biacore™ T200 instrument (GE Healthcare).

recombinant mouse TL1A = target: T4, recombinant mouse TL1A (mouse, UniProt Q5UBV8 75-252); assay: as above
T4 construct: biotinylated for SPR capture
T4 chain: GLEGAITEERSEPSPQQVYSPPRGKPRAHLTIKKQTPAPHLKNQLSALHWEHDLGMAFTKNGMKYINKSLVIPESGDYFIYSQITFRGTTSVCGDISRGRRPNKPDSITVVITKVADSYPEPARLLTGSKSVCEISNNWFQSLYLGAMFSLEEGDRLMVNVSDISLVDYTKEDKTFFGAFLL
Procedure: as §3, §4

human serum albumin = target: T5, human serum albumin (human, UniProt P02768 25-609); assay: direct binding ELISA on coated HSA
T5 construct: also called HSA
Procedure: as §1, §2

recombinant human TL1A [3] = target: T6, recombinant human TL1A (human, UniProt O95150 71-251); assay: cell-based or functional assay
T6 chain: T1 chain

[4] = target: T7, full-length human TL1A on CHO-K1 cells (human, UniProt O95150 1-251); assay: flow cytometry, CHO-K1 cells expressing human TL1A, 133 nM; cells, antibody at 133 nM
T7 construct: whole, on cells; also called cells over-expressing human TL1A
T7 sequence (looked up): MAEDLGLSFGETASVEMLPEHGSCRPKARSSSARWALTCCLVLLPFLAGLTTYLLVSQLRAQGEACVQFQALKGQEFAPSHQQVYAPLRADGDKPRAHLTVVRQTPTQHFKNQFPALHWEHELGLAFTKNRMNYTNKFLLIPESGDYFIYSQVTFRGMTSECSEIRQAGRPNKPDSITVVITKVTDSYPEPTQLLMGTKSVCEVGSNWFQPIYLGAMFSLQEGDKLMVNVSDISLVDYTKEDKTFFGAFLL

recombinant human TL1A [5] = target: T6, recombinant human TL1A; assay: competition ELISA, coated TL1A, competitor bio-TL1A-0002
recombinant human TL1A [6] = target: T1, recombinant human TL1A; assay: ELISA, biotinylated antibody on coated recombinant TL1A
recombinant human TL1A [7] = target: T1, recombinant human TL1A; assay: competition ELISA vs bio-TL1A-0002
recombinant human TL1A [8] = target: T1, recombinant human TL1A; assay: competition ELISA vs bio-TL1A-0002
Procedure: For this competition ELISA assay procedure, 96-well high binding plates (Corning, product number 3590) were coated with 1 μg/mL recombinant TL1A in 100 μL/well in Phospate Buffered Saline (PBS) overnight at 4° C. Plates were then blocked in PBS+0.02% casein solution and washed with PBS+0.05% Tween-20 following standard ELISA protocol. […] Plates were washed with PBS+0.05% Tween-20 following standard ELISA protocol, and Streptavidin-HRP (Southern Biotech, product number 7100-05) diluted to 1:10,000 in assay buffer was added to plates and incubated for 25-30 minutes at room temperature. Next, the plates were washed with PBS+0.05% Tween-20 following standard ELISA protocol, and then TMB substrate (BioFX Laboratories, catalog number TMBW-0100-01) was added to plates. Reactions were stopped after approximately 5 minutes by adding 0.18 M ortho-phosphoric acid to each well and absorbance was read at 450 nm.

B1: TL1A-0372 monovalent bispecific antibody (bispecific antibody, human IgG1, kappa)
heavy 1: QVQLVQSGAEVKKPGASVKVSCKASGYDYTYYGISWVRQAPGQGLEWMGWISTYNTGTHYAPSLQGRVTMTTDTSTSTAYMELRSLRSDDTAVYYCARESYYGSGAFRGGMDVWGQGTTVTVSSASTKGPSVFPLAPSSKSTSGGTAALGCLVKDYFPEPVTVSWNSGALTSGVHTFPAVLQSSGLYSLSSVVTVPSSSLGTQTYICNVNHKPSNTKVDKKVEPKSCDKTHTCPPCPAPEAAGAPSVFLFPPKPKDTLMISRTPEVTCVVVDVSHEDPEVKFNWYVDGVEVHNAKTKPREEQYNSTYRVVSVLTVLHQDWLNGKEYKCKVSNKALPAPIEKTISKAKGQPREPQVCTLPPSREEMTKNQVSLWCLVKGFYPSDIAVEWESNGQPENNYKTTPPVLDSDGSFFLYSKLTVDKSRWQQGNVFSCSVLHEALHSHYTQKSLSLSPGK
heavy 2: not shown
light: not shown
notes: KiH, LS
Recombinant human TL1A [1]
  NF-κB assay in TF-1 reporter cells, neutralization relative to TL1A-0002: ≤ 2 fold
Bovine serum albumin
  binding result: no binding (tested: 0.5-1000 nM)
[2]
  fold higher affinity to human TL1A than to this TL1A: ~2 fold
Recombinant mouse TL1A
  fold higher affinity to human TL1A than to this TL1A: ~546 fold
Human serum albumin
  binding result: no binding (tested: 0.5-1000 nM)

B2: TL1A-0002 (antibody, human IgG1, kappa, V domains shown)
VH: QVQLVQSGAEVKKPGASVKVSCKASGYDFTYYGISWVRQAPGQGLEWMGWISTYNGNTHYARMLQGRVTMTTDTSTRTAYMELRSLRSDDTAVYYCARENYYGSGAYRGGMDVWGQGTTVTVSS
VL: EIVLTQSPATLSLSPGERATLSCRASQSVSSYLAWYQQKPGQAPRLLIYDASNRATGIPARFSGSGSGTDFTLTISSLEPEDFAVYYCQQRSNWPWTFGQGTKVEIKR
notes: human IgG1 effector-function-minimized/kappa; also called parental TL1A-0002
Recombinant human TL1A [3]
  TF-1 NF-κB reporter cell bioassay IC50: 34.7 nM
  TF-1 NF-κB reporter cell bioassay, Bioactivity relative to TL1A-0002: 1 fold
  Whole blood IFNγ assay IC50: 0.83 nM
  Whole blood IFNγ assay, Bioactivity relative to TL1A-0002: 1 fold
[4]
  binding result: binds
Recombinant human TL1A [5]
  Bioactivity relative to TL1A-0002: 1 fold
  IC50: 5 nM

B3: TL1A-0002 (antibody, human IgG1, kappa, V domains shown)
VH: B2 VH
VL: B2 VL
notes: human IgG1/kappa, effector function minimized; also called bioTL1A-0002 (biotinylated)
Recombinant human TL1A [6]
  EC50: 5 ng/mL
Recombinant human TL1A [7]
  Bioactivity relative to TL1A-0002: 1 fold
  IC50: 4.5 nM
Recombinant human TL1A [8]
  Bioactivity relative to TL1A-0002: 1 fold
  IC50: 4.5 nM
